B1: human FGF 17: human-derived fibroblast growth factor 17, commercial product of Pepro Tech (protein)
chain: TQGENHPSPNFNQYVRDQGAMTDQLSRRQIREYQLYSRTSGKHVQVTGRRISATAEDGNKFAKLIVETDTFGSRVRIKGAESEKYICMNKRGKLIGKPSGKSKDCVFTEIVLENNYTAFQNARHEGWFMAFTRQGRPRQASRSRQNQREAHFIKRLYQGQLPFPNHAEKQKQFEFVGSAPTRRTKRTRRPQPLT
B2: human FGF 8: human-derived fibroblast growth factor 8, commercial product of Pepro Tech (protein)
chain: QVTVQSSPNFTQHVREQSLVTDQLSRRLIRTYQLYSRTSGKHVQVLANKRINAMAEDGDPFAKLIVETDTFGSRVRVRGAETGLYICMNKKGKLIAKSNGKGKDCVFTEIVLENNYTALQNAKYEGWYMAFTRKGRPRKGSKTRQHQREVHFMKRLPRGHHTTEQSLRFEFLNYPPFTRSLRGSQRTWAPEPR
B3: human FGF 7 (KGF): human-derived fibroblast growth factor 7 (KGF), commercial product of Pepro Tech (protein)
chain: CNDMTPEQMATNVNCSSPERHTRSYDYMEGGDIRVRRLFCRTQWYLRIDKRGKVKGTQEMKNNYNIMEIRTVAVGIVAIKGVESEFYLAMNKEGKLYAKKECNEDCNFKELILENHYNTYASAKWTHNGGEMFVALNQKGIPVRGKKTKKEQKTAHFLPMAIT
B4: human FGF 10: human-derived fibroblast growth factor 10, commercial product of Pepro Tech (protein)
chain: LGQDMVSPEATNSSSSSFSSPSSAGRHVRSYNHLQGDVRWRKLFSFTKYFLKIEKNGKVSGTKKENCPYSILEITSVEIGVVAVKAINSNYYLAMNKKGKLYGSKEFNNDCKLKERIEENGYNTYASFNWQHNGRQMYVALNGKGAPRRGQKTRRKNTSAHFLPMVVHS

Columns and labels:
ΔG/SEAP/HCV E1E2 [1] = test: Effects of solubilized FGFR-1 to FGFR-4 (FGFR/Fc) on infectivity of pseudotyped HCV to HepG2 cells; assay type: cell-based; settings: FGFR/Fc mixed with virus 1 hour before inoculation, FIG. 5
ΔG/SEAP/HCV E1E2 [2] = test: Effects of FGF family members on infectivity of pseudotyped HCV to HepG2 cells (SEAP reporter); assay type: cell-based; settings: for IC50 ΔG/SEAP/HCV E1E2: growth factor added 1 hour before virus, SEAP in supernatant after 24 hours; for infection of ΔG/SEAP/HCV E1E2: result in words

| Molecule | infectivity of ΔG/SEAP/HCV E1E2 (ΔG/SEAP/HCV E1E2 [1]) | IC50 ΔG/SEAP/HCV E1E2 (ΔG/SEAP/HCV E1E2 [2]) [mg/L] | infection of ΔG/SEAP/HCV E1E2 (ΔG/SEAP/HCV E1E2 [2]) |
| --- | --- | --- | --- |
| FGFR-4 | inhibited |  |  |
| human FGF 2 (basic): human-derived fibroblast growth factor 2 (basic), commercial product of Pepro Tech |  | 1.36 | inhibited |
| human FGF 18: human-derived fibroblast growth factor 18, commercial product of Pepro Tech |  | >10 |  |
| human FGF 20: human-derived fibroblast growth factor 20, commercial product of Pepro Tech |  | >10 |  |
| B1 |  | 7.41 | inhibited |
| B2 |  | 8.51 | inhibited |
| B3 |  | 2.32 | inhibited |
| B4 |  | >10 |  |

— patent US20080125362A1, “Method of screening compound preventing cells from infection with Hepatitis C virus (HCV)” (Japan Tobacco Inc., priority 2004, published 2008)
